pKi: −log10 of the molar value.

The target in the assay is NL-IL23R co-expressed with IL12Rβ1 (IL-23 receptor on cells) (UniProt Q5VWK5). Description: FRET or BRET; NanoBRET competition on living transfected HEK293T cells; 300 pM IL23-TMR displaced by unlabelled antagonist (concentration series or a single concentration); 1 h at 37 °C in HBSS with 1 mg/mL BSA.
NL-IL23R co-expressed with IL12Rβ1 (IL-23 receptor on cells), sequence (Q5VWK5 24-629, chain 1 of 2, other chains not shown): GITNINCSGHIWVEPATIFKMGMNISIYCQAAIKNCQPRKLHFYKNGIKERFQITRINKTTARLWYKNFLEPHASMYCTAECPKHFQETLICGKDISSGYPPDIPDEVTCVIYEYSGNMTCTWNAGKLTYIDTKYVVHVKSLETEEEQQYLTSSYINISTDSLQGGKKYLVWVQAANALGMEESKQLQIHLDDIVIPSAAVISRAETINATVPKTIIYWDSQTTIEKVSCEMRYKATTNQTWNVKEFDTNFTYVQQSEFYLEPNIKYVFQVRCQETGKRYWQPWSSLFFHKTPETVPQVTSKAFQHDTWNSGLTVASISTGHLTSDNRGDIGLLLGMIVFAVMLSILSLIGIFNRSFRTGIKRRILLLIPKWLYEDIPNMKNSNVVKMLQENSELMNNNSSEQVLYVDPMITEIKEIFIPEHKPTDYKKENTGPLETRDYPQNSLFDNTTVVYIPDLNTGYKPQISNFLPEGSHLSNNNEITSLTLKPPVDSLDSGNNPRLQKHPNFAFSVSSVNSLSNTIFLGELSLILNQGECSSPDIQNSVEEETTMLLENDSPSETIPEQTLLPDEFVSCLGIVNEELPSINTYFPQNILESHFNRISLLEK

Substance “IL12p80 (from UniProt P29460 23-328) (ligand)” showed a pKi of 9.33.

The values are drawn from publication PMC10199020.
